Results published in patent US5597569A (priority 1994, dated 1997).
Like-named read-outs stand apart in the source and are kept apart here.

Columns and labels:
[1] = tested on: mice; conditions: for % Survival / LD50: mice; for % Survival: >14 days; for LD50: single dose
[2] = tested on: liver; conditions: for liver lesions: histochemical analysis
[3] = tested on: protein synthesis in rabbit reticulocyte lysate
[4] = tested on: H3396 cell membranes (BR96 antigen); format: binding, human; conditions: FIG. 10; ELISA, 10 μg/ml H3396 membranes
[5] = tested on: protein synthesis in rabbit reticulocyte lysate with wheat germ ribosomes; conditions: cited from earlier work
[6] = tested on: mice; conditions: intraperitoneal, literature; cited from earlier work

B1: bryodin 2: novel type I ribosome-inactivating protein of about 27,000 daltons isolated from the roots of Bryonia dioica (SEQ ID NO: 15) (protein)
chain: MRSIGFYSVLALYVGAHVTEDVDINFSLIGATGATYKTFIRNLRTKLTVGTPRVYDIPVLRNAAAGLARFQLVTLTNYNGESVTVALDVVNVYVVAYRAGNTAYFLADASTEANNVLFAGINHVRLPYGGNYDGLETAAGRISRENIELGFSEISSAIGNMFRHNPGTSVPRAFIVIIQTVSEAARFKYIEQRVSENVGTKFKPDPAFLSLQNAWGSLSEQIQIAQTRGGEFARPVELRTVSNTPTFVTNVNSPVVKGIALLLYFRVNVGTDNVFAMSLSTY
In the case of B1, the “toxicity to mice relative to bryodin 1” value ([1]; i.p. and i.v.) is reported as “slightly more toxic to mice than bryodin 1”, the “% Survival” value ([1]; i.p., 7 mg/kg) is reported as 100% and the “% Survival” value ([1]; i.p., 8 mg/kg) is reported as 50%. The “% Survival” value ([1]; i.p., 10 mg/kg) was 0%, the “% Survival” value ([1]; i.p., 12 mg/kg) was 0% and the “% Survival” value ([1]; i.v., 5 mg/kg) was 100%. For the same molecule, the “% Survival” value ([1]; i.v., 6 mg/kg) was 100%, the “% Survival” value ([1]; i.v., 7 mg/kg) was 100% and the “% Survival” value ([1]; i.v., 8 mg/kg) was 75%. The “% Survival” value ([1]; i.v., 10 mg/kg) was 75%, the “% Survival” value ([1]; i.v., 12 mg/kg) was 0% and the “% Survival” value ([1]; i.v., 14 mg/kg) was 0%. For the same molecule, the LD50 ([1]; intraperitoneal) was 8 mg/kg, the LD50 ([1]; intraperitoneal, listed as BD2) was “about 8 mg/kg” and the LD50 ([1]; intravenous) was “greater than 10 mg/kg”. The “liver protein in blood chemistry screen” value ([2]; blood chemistry, data not shown) was “increased liver protein”, the liver lesions [2] was “showed liver lesions” and the liver lesions ([2]; listed as BD2) was “presence of liver lesions”. The SGOT ([2]; injected mice) was “elevated”, the SGPT ([2]; injected mice) was “elevated” and the “cause of death at lethal dose” value ([2]; necropsy) was “liver toxicity was the cause of death”. The EC50 [3] was 0.017 nM and the “binding to H3396 membranes” value [4] was “no detectable binding”.

B2: gelonin: a type 1 ribosome-inhibiting protein (protein)
chain: GLDTVSFSTKGATYITYVNFLNELRVKLKPEGNSHGIPLLRKKCDDPGKCFVLVALSNDNGQLAEIAIDVTSVYVVGYQVRNRSYFFKDAPDAAYEGLFKNTIKTRLHFGGSYPSLEGEKAYRETTDLGIEPLRIGIKKLDENAIDNYKPTEIASSLLVVIQMVSEAARFTFIENQIRNNFQQRIRPANNTISLENKWGKLSFQIRTSGANGMFSEAVELERANGKKYYVTAVDQVKPKIALLKFVDKDPK
In the case of B2, the EC50 [3] is reported as 0.049 nM.

B3: bryodin 1: type I ribosome-inactivating protein from the root of Bryonia dioica; 29 kDa band identical to the bryodin described by Stirpe (protein)
chain: DVSFRLSGATTTSYGVFIKNLREALPYERKVYNIPLLRSSISGSGRYTLLHLTNYADETISVAVDVTNVYIMGYLAGDVSYFFNEASATEAAKFVFKDAKKKVTLPYSGNYERLQTAAGKIRENIPLGLPALDSAITTLYYYTASSAASALLVLIQSTAESARYKFIEQQIGKRVDKTFLPSLATISLENNWSALSKQIQIASTNNGQFESPVVLIDGNNQRVSITNASARVVTSNIALLLNRNNIA
With B3 the “% Survival” value ([1]; i.p., 10 mg/kg) was 100%, the “% Survival” value ([1]; i.p., 12 mg/kg) was 100% and the “% Survival” value ([1]; i.p., 14 mg/kg) was 100%. The “% Survival” value ([1]; i.p., 16 mg/kg) was 100%, the “% Survival” value ([1]; i.v., 12 mg/kg) was 100% and the “% Survival” value ([1]; i.v., 16 mg/kg) was 100%. For the same molecule, the “% Survival” value ([1]; i.v., 18 mg/kg) was 100%, the “% Survival” value ([1]; i.v., 20 mg/kg) was 100% and the “ID50, inhibition of protein synthesis” value [5] was 3.6 ng/mL. The LD50 [6] was 14.5 mg/kg and the “binding to H3396 membranes” value [4] was “no detectable binding”.
